Reference: the supplement of paper PMC5998384

Key:
HeLa Kyoto [1] = experiment: thermal stability score vs G1/S (z-score of summed log2 fold changes over temperatures); higher = more thermally stable than in G1/S
HeLa Kyoto [2] = experiment: solubility in G1/S (NP-40 vs SDS abundance) (log2 ratio); higher = more soluble; details: cell cycle stage: G1/S
HeLa Kyoto [3] = experiment: melting temperature (median over replicates), in situ; higher = more thermally stable
HeLa Kyoto [4] = experiment: solubility change mitosis vs G1/S (difference of NP-40 vs SDS log2 ratios) (log2 ratio difference); higher = more soluble in mitosis
[5] = cell cycle stage: early G1 (4.5 h after nocodazole release)
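Throughout, for melting temperature (median over replicates), in situ: HeLa Kyoto cells synchronized by double thymidine or nocodazole block, proteins quantified by TMT10plex mass spectrometry, three independent biological replicates.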
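Throughout, for solubility change mitosis vs G1/S (difference of NP-40 vs SDS log2 ratios): synchronized HeLa Kyoto cells (double thymidine block for G1/S, nocodazole release for mitosis), protein amounts in NP-40 versus SDS lysates quantified by mass spectrometry, three biological replicates.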
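Throughout, for solubility in G1/S (NP-40 vs SDS abundance): HeLa Kyoto cells arrested at G1/S by double thymidine block, proteins quantified by TMT10plex mass spectrometry in mild NP-40 versus SDS extracts, three biological replicates.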
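Throughout, for thermal stability score vs G1/S (z-score of summed log2 fold changes over temperatures): synchronized HeLa Kyoto cells, proteins quantified by TMT10plex mass spectrometry, three biological replicates, mitosis taken 0.5 h after nocodazole release, G1/S directly after double thymidine block.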

Sequence of AKAP8 (chain, as listed by the source): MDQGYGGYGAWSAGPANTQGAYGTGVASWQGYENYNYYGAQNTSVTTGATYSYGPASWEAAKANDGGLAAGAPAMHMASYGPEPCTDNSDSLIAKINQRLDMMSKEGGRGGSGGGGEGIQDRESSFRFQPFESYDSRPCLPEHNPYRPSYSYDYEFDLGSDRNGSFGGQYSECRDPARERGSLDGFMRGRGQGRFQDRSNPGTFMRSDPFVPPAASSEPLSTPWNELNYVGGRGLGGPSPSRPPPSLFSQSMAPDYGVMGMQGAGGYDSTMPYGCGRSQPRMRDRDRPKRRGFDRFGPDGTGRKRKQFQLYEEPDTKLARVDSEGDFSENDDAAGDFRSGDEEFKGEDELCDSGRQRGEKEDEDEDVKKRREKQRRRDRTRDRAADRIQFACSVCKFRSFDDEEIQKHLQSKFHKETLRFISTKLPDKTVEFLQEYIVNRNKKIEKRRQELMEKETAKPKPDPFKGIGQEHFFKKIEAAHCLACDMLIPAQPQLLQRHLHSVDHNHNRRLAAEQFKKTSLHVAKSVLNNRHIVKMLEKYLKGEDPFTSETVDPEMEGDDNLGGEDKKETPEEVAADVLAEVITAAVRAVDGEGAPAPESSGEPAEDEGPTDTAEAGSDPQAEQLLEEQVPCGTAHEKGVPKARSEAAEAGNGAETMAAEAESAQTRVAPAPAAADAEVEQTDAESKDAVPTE

| Substance | thermal stability score (HeLa Kyoto [1]; [5]) | thermal stability score (HeLa Kyoto [1]; cell cycle stage: mitosis) | solubility in G1/S (log2) (HeLa Kyoto [2]) | melting temperature (HeLa Kyoto [3]; cell cycle stage: G1/S) | melting temperature (HeLa Kyoto [3]; cell cycle stage: mitosis) | solubility change mitosis (log2) (HeLa Kyoto [4]) |
| --- | --- | --- | --- | --- | --- | --- |
| MLHFNRCHHLKKITQKCFSSIHVKTDKHAQRFLSRTFALAELRKSWYSTHSLVGDKNIILMGPPGAGKTTVGRIIGQKLGCCVIDVDDDILEKTWNMSVSEKLQDVGNEQFLEEEGKAVLNFSASGSVISLTGSNPMHDASMWHLKKNGIIVYLDVPLLDLICRLKLMKTDRIVGQNSGTSMKDLLKFRRQYYKKWYDARVFCESGASPEEVADKVLNAIKRYQDVDSETFISTRHVWPEDCEQKVSAKFFSEAVIEGLASDGGLFVPAKEFPKLSCGEWKSLVGATYVERAQILLERCIHPADIPAARLGEMIETAYGENFACSKIAPVRHLSGNQFILELFHGPTGSFKDLSLQLMPHIFAHCIPPSCNYMILVATSGDTGSAVLNGFSRLNKNDKQRIAVVAFFPENGVSDFQKAQIIGSQRENGWAVGVESDFDFCQTAIKRIFNDSDFTGFLTVEYGTILSSANSINWGRLLPQVVYHASAYLDLVSQGFISFGSPVDVCIPTGNFGNILAAVYAKMMGIPIRKFICASNQNHVLTDFIKTGHYDLRERKLAQTFSPSIDILKSSNLERHLHLMANKDGQLMTELFNRLESQHHFQIEKALVEKLQQDFVADWCSEGECLAAINSTYNTSGYILDPHTAVAKVVADRVQDKTCPVIISSTAHYSKFAPAIMQALKIKEINETSSSQLYLLGSYNALPPLHEALLERTKQQEKMEYQVCAADMNVLKSHVEQLVQNQFI [THNSL1] | 0.435 | -0.697 | -0.0605 | 52.5 °C | 52.7 °C | -0.0759 |
| AKAP8 | 1.87 | 2.22 | -0.14 | 49 °C | 49.8 °C | 0.113 |
| MHVIKRDGRQERVMFDKITSRIQKLCYGLNMDFVDPAQITMKVIQGLYSGVTTVELDTLAAETAATLTTKHPDYAILAARIAVSNLHKETKKVFSDVMEDLYNYINPHNGKHSPMVAKSTLDIVLANKDRLNSAIIYDRDFSYNYFGFKTLERSYLLKINGKVAERPQHMLMRVSVGIHKEDIDAAIETYNLLSERWFTHASPTLFNAGTNRPQLSSCFLLSMKDDSIEGIYDTLKQCALISKSAGGIGVAVSCIRATGSYIAGTNGNSNGLVPMLRVYNNTARYVDQGGNKRPGAFAIYLEPWHLDIFEFLDLKKNTGKEEQRARDLFFALWIPDLFMKRVETNQDWSLMCPNECPGLDEVWGEEFEKLYASYEKQGRVRKVVKAQQLWYAIIESQTETGTPYMLYKDSCNRKSNQQNLGTIKCSNLCTEIVEYTSKDEVAVCNLASLALNMYVTSEHTYDFKKLAEVTKVVVRNLNKIIDINYYPVPEACLSNKRHRPIGIGVQGLADAFILMRYPFESAEAQLLNKQIFETIYYGALEASCDLAKEQGPYETYEGSPVSKGILQYDMWNVTPTDLWDWKVLKEKIAKYGIRNSLLIAPMPTASTAQILGNNESIEPYTSNIYTRRVLSGEFQIVNPHLLKDLTERGLWHEEMKNQIIACNGSIQSIPEIPDDLKQLYKTVWEISQKTVLKMAAERGAFIDQSQSLNIHIAEPNYGKLTSMHFYGWKQGLKTGMYYLRTRPAANPIQFTLNKEKLKDKEKVSKEEEEKERNTAAMVCSLENRDECLMCGS [RRM1] | -8.92 | -8.47 | -0.148 | 56.1 °C | 53.8 °C | -0.154 |
| MPSDLAKKKAAKKKEAAKARQRPRKGHEENGDVVTEPQVAEKNEANGRETTEVDLLTKELEDFEMKKAAARAVTGVLASHPNSTDVHIINLSLTFHGQELLSDTKLELNSGRRYGLIGLNGIGKSMLLSAIGKREVPIPEHIDIYHLTREMPPSDKTPLHCVMEVDTERAMLEKEAERLAHEDAECEKLMELYERLEELDADKAEMRASRILHGLGFTPAMQRKKLKDFSGGWRMRVALARALFIRPFMLLLDEPTNHLDLDACVWLEEELKTFKRILVLVSHSQDFLNGVCTNIIHMHNKKLKYYTGNYDQYVKTRLELEENQMKRFHWEQDQIAHMKNYIARFGHGSAKLARQAQSKEKTLQKMMASGLTERVVSDKTLSFYFPPCGKIPPPVIMVQNVSFKYTKDGPCIYNNLEFGIDLDTRVALVGPNGAGKSTLLKLLTGELLPTDGMIRKHSHVKIGRYHQHLQEQLDLDLSPLEYMMKCYPEIKEKEEMRKIIGRYGLTGKQQVSPIRNLSDGQKCRVCLAWLAWQNPHMLFLDEPTNHLDIETIDALADAINEFEGGMMLVSHDFRLIQQVAQEIWVCEKQTITKWPGDILAYKEHLKSKLVDEEPQLTKRTHNV [ABCF2] | 1.11 | 0.19 | -0.296 | 51.8 °C | 51.2 °C | 0.116 |
